Target: γ-tubulin of pig brain γ-tubulin complexes (pig (endogenous in brain))
Assay: quantitative immunoblot of the purified complexes

- abundance of 76p against γ-tubulin in the purified complexes: 5 fold
Substance: 76p of pig brain γ-tubulin complexes (76-kD polypeptide, pig orthologue of h76p = hGCP4) (natural protein)
